T1: TcAK (arginine kinase from Trypanosoma cruzi) (Trypanosoma cruzi, UniProt O96507)
T1 sequence (O96507 1-357): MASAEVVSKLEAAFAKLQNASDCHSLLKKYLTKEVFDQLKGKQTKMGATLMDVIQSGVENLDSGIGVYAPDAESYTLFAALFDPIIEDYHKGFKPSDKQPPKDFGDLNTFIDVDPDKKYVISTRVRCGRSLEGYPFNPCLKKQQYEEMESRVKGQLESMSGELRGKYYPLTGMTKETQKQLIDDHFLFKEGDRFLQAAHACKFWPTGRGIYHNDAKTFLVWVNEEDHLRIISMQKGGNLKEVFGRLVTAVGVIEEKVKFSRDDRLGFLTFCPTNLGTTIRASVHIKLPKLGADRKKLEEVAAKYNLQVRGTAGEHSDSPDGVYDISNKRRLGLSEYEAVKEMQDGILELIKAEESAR


Columns and labels:
[1] = molecular target: T1, TcAK (arginine kinase from Trypanosoma cruzi); assay: coupled pyruvate kinase / lactate dehydrogenase assay, NADH at […] nm; format: biochemical
purified protein [2] = substrate: Nc1ncnc2c1ncn2[C@@H]1O[C@H](COP(=O)(O)OP(=O)(O)OP(=O)(O)O)[C@@H](O)[C@H]1O; assay: purified protein; conditions: no delphinidin, arginine 10 mM, 1.5 mM MgCl2, Tris-HCl pH 8.2
purified protein [3] = substrate: N=C(N)NCCC[C@H](N)C(=O)O; assay: purified protein; conditions: no delphinidin, ATP 1.5 mM, 1.5 mM MgCl2, Tris-HCl pH 8.2

| Ki [1] [µM] | Molecule | Km (purified protein [2]) [µM] | Km (purified protein [3]) [µM] |
| --- | --- | --- | --- |
| 1.32 | Oc1cc(O)c2cc(O)c(-c3cc(O)c(O)c(O)c3)[o+]c2c1 [delphinidin] |  |  |
|  | TcAK (arginine kinase from Trypanosoma cruzi) (Trypanosoma cruzi) (protein) MASAEVVSKLEAAFAKLQNASDCHSLLKKYLTKEVFDQLKGKQTKMGATLMDVIQSGVENLDSGIGVYAPDAESYTLFAALFDPIIEDYHKGFKPSDKQPPKDFGDLNTFIDVDPDKKYVISTRVRCGRSLEGYPFNPCLKKQQYEEMESRVKGQLESMSGELRGKYYPLTGMTKETQKQLIDDHFLFKEGDRFLQAAHACKFWPTGRGIYHNDAKTFLVWVNEEDHLRIISMQKGGNLKEVFGRLVTAVGVIEEKVKFSRDDRLGFLTFCPTNLGTTIRASVHIKLPKLGADRKKLEEVAAKYNLQVRGTAGEHSDSPDGVYDISNKRRLGLSEYEAVKEMQDGILELIKAEESAR | 200 ± 330 | 810 ± 330 |

From article doi:10.1101/2020.06.23.167452v1 (biorxiv, 2020)
